Test results reported in article PMC5561266.

Molecular target: McpB ligand-binding domain (LBD) of Ralstonia pseudosolanacearum Ps29 (Ralstonia pseudosolanacearum Ps29)
Assay: AUC

McpB ligand-binding domain (LBD) of Ralstonia pseudosolanacearum Ps29 (domain or fragment)
stoichiometry N: 2
